Assay results taken from patent US20250129141A1 (BEIJING WISDOMAB BIOTECHNOLOGY, published 2025).
Substitutions are numbered along the chain they refer to.

B1: S24B8-h1-IgG1 (antibody, V domains shown)
VH: QVQLVQSGAEVKKPGSSVKVSCKASGYTFTSYWIYWVRQAPGQGLEWIGEINPTNGFANYNEKFKTKATITVDKSTSTAYMELSSLRSEDTAVYYCAIHFRFPYWGQGTMVTVSS
VL: DIQMTQSPSSLSASVGDRVTITCRASQDIGSSLTWLQQKPGKAPKRLIYATSSLDSGVPSRFSGSGSGTDYTLTISSLQPEDFATYYCLQYASSPYTFGQGTKLEIK
B2: S24B8-h3-IgG1 (antibody, V domains shown)
VH: B1 VH with G56A
VL: B1 VL
B3: S24B8-h2-IgG1 (antibody, V domains shown)
VH: B1 VH with N55A
VL: B1 VL
B4: S22E2-h1-IgG1 (antibody, V domains shown)
VH: QVTLKESGPVLVKPTETLTLTCTVSGFSLTDYGVNWIRQPPGKALEWLGMIWSDGTTDYSSALKSRLTISKDTSKSQVVLTMTNMDPVDTATYYCARVDGYSHYYAMDYWGQGTLVTVSS
VL: DIQMTQSPSSLSASVGDRVTITCRASENIYSYLAWYQQKQGKAPQLLIYNAKTLAEGVSSRFSGSGSGTQFTLTISSLQPEDFATYYCQHHYGLPFTFGQGTKLEIK

Molecular target: recombinant protein of C-terminal domain of tetanus toxin heavy chain with C-terminal His tag (TT-Hc-His) (Clostridium tetani, UniProt P04958 865-1315)

Row | Binder | koff [s⁻¹] | Kd [nM]
1 | B1 | < 1e-05 | –
2 | B2 | – | 0.164
3 | B3 | – | 0.385
4 | B4 | – | 0.573
